Data on 22 molecules can be found in US20240301023A1 (PREVECEUTICAL MEDICAL, published 2024).

Square brackets hold non-standard residues; d marks the D form. Primed or numbered codes have the meaning given here. Ends that are not written are not given here. Phe(4-NO2) = N[C@@H](Cc1ccc([N+](=O)[O-])cc1)C(=O)O; Phe(4-Cl) = N[C@@H](Cc1ccc(Cl)cc1)C(=O)O; Phe(4-F) = N[C@@H](Cc1ccc(F)cc1)C(=O)O; Api = NC1(C(=O)O)CCNCC1; NMA″ = not defined here; NMA = N-methylarginine; GABA = NCCCC(=O)O; Sar = CNCC(=O)O

Assay in all cases: cell-based or functional assay
In test [1] the target is Delta opioid receptor (DOR).
The target of test [2] is T1, Kappa opioid receptor (KOR) (Homo sapiens (Human), UniProt P41145 1-380).
Test [3] has as its target Mu opioid receptor (MOR).
Test [4] deals with Delta opioid receptor (DOR). The source holds these as a separate data set.
Test [5] deals with T1, Kappa opioid receptor (KOR). This is another data set of the same source.
Test [6] deals with Mu opioid receptor (MOR). This is another data set of the same source.
Sequence of Mu opioid receptor (MOR) (P35372 whole entry): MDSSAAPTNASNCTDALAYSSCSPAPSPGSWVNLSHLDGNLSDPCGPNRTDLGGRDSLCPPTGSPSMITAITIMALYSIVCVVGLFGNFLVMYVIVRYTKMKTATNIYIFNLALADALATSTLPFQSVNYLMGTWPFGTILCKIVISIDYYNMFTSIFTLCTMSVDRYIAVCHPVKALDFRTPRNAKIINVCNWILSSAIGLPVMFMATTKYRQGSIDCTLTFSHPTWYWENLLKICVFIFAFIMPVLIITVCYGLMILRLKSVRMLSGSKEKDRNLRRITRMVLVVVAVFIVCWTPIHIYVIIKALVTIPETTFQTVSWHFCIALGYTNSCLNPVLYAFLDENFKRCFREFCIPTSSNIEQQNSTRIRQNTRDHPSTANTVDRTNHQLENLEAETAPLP

T1 sequence (P41145 whole entry, form in doubt): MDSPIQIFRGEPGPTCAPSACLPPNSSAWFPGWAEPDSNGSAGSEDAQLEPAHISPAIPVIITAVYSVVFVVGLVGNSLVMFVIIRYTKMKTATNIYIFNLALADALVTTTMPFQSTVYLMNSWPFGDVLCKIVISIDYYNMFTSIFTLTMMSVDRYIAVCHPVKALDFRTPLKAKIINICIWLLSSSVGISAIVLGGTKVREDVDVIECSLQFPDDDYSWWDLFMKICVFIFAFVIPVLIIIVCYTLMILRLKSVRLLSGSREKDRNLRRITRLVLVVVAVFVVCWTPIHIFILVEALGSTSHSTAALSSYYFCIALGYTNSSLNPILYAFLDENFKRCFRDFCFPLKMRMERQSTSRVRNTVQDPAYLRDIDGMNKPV

B1: SEQ ID NO. 28: NH2-Tyr-Sar-(4-Cl)Phe-Leu-Arg-DArg-C7H14-COOH (peptide)
peptide: H-Y[Sar][Phe(4-Cl)]LR[dR]
modifications: not fully specified (C-terminus); printed as NH2-Tyr-Sar-(4-Cl)Phe-Leu-Arg-DArg-C7H14-COOH
For the molecule B1, the “Activity (EC50, nM), cAMP assay” value was greater than 10000 nM in test [1], 2.33 nM in test [2] and greater than 10000 nM in test [3].

B2: SEQ ID NO. 17: NH2-Tyr-Sar-(4-Cl)Phe-Leu-Arg-NMA-NH2 (peptide)
peptide: H-Y[Sar][Phe(4-Cl)]LR[NMA″]-NH2
modifications: reading uncertain; also: printed as NH2-Tyr-Sar-(4-Cl)Phe-Leu-Arg-NMA-NH2
On to B2, for which the “Activity (EC50, nM), cAMP assay” value in test [2] was 3.9 nM; in test [3], greater than 10000 nM.

B3: SEQ ID NO. 31: NH2-Tyr-Sar-(4-NO2)Phe-Leu-Arg-DArg-C7H14-CONH2 (peptide)
peptide: H-Y[Sar][Phe(4-NO2)]LR[dR]-{C7H14‑CONH2}
Take B3: the “Activity (EC50, nM), cAMP assay” value in test [1] was greater than 10000 nM; in test [2], 2.49 nM; in test [3], greater than 10000 nM.

B4: SEQ ID NO. 1: NH2-Tyr-Gaba-Phe-Leu-Arg-Arg-NH2 (peptide)
peptide: H-Y[GABA]FLRR-NH2
SMILES: CC(C)C[C@H](NC(=O)[C@H](Cc1ccccc1)NC(=O)CCCNC(=O)[C@@H](N)Cc1ccc(O)cc1)C(=O)N[C@@H](CCCNC(=N)N)C(=O)N[C@@H](CCCNC(=N)N)C(N)=O
On to B4, for which the “cAMP assay (ALPHAScreen), result at 1 µM peptide” value (“cAMP assay … at 1 µM peptide” for short) in test [4] is 2.57; in test [5], 4.23; in test [6] it was -6.78. Also, the “cAMP assay (ALPHAScreen), result at 10 µM peptide” value (from here on “cAMP assay … at 10 µM peptide”) in test [4] came out at 19.6; in test [5], 22.9; in test [6], 7.28.

B5: SEQ ID NO. 15: NH2-Tyr-Sar-(4-NO2)Phe-Leu-NMA-DArg-NH2 (peptide)
peptide: H-Y[Sar][Phe(4-NO2)]L[NMA][dR]-NH2
Take B5: the “Activity (EC50, nM), cAMP assay” value in test [1] is 1320 nM; in test [2], 13.5 nM; in test [3], greater than 10000 nM.

B6: SEQ ID NO. 24: NH2-Tyr-Sar-(4-Cl)Phe-Leu-Arg-DArg-C7H14-CONH2 (peptide)
peptide: H-Y[Sar][Phe(4-Cl)]LR[dR]-{C7H14‑CONH2}
With B6, the “Activity (EC50, nM), cAMP assay” value in test [1] and in test [3] was greater than 10000 nM in each case.

B7: SEQ ID NO. 25: NH2-Tyr-Sar-(4-Cl)Phe-Leu-Arg-DArg-Ile-DArg-NH2 (peptide)
peptide: H-Y[Sar][Phe(4-Cl)]LR[dR]I[dR]-NH2
As to B7, the figures for the “Activity (EC50, nM), cAMP assay” value in test [1] and in test [3] were greater than 10000 nM and 1610 nM, respectively.

B8: SEQ ID NO. 13: NH2-Tyr-Sar-(4-Cl)Phe-Leu-NMA-DArg-NH2 (peptide)
peptide: H-Y[Sar][Phe(4-Cl)]LX[dR]-NH2
modifications: not fully specified (residue 5); printed as NH2-Tyr-Sar-(4-Cl)Phe-Leu-NMA-DArg-NH2
B8: the results for the “Activity (EC50, nM), cAMP assay” value in test [1], in test [2] and in test [3] were greater than 10000 nM, 4.54 nM and greater than 10000 nM, respectively.

B9: SEQ ID NO. 9: NH2-Phe-Sar-(4-NO2)Phe-Leu-DArg-DArg-NH2 (peptide)
peptide: H-F[Sar][Phe(4-NO2)]L[dR][dR]-NH2
SMILES: CC(C)C[C@H](NC(=O)[C@H](Cc1ccc([N+](=O)[O-])cc1)NC(=O)CN(C)C(=O)[C@@H](N)Cc1ccccc1)C(=O)N[C@H](CCCNC(=N)N)C(=O)N[C@H](CCCNC(=N)N)C(N)=O
For B9, the “cAMP assay … at 1 µM peptide” value is -0.5 in test [4], 2.46 in test [5] and -0.97 in test [6]. For the same molecule, the “cAMP assay … at 10 µM peptide” value in test [4] was 1.83; in test [5], 23.1; in test [6], -0.64.

B10: SEQ ID NO. 4: NH2-Tyr-Sar-(4-NO2)Phe-Leu-Arg-DArg-NH2 (peptide)
peptide: H-Y[Sar][Phe(4-NO2)]LR[dR]-NH2
Take B10: the “cAMP assay … at 1 µM peptide” value was -0.75 in test [4] and 0.17 in test [6]. The “cAMP assay … at 10 µM peptide” value is 2.04 in test [4] and 2.52 in test [6]. Besides, the “Activity (EC50, nM), cAMP assay” value in test [1] and in test [3] was greater than 10000 nM each time.

B11: SEQ ID NO. 3: NH2-Tyr-Sar-Phe-Leu-Arg-DArg-NH2 (peptide)
peptide: H-Y[Sar]FLR[dR]-NH2
With B11, the “cAMP assay … at 1 µM peptide” value was -2.27 in test [4], 27.2 in test [5] and -0.68 in test [6]. Moreover, the “cAMP assay … at 10 µM peptide” value amounted to 2.24 in test [4], 43.6 in test [5] and 2.17 in test [6]. Moreover, the “Activity (EC50, nM), cAMP assay” value is greater than 10000 nM in test [1], 74.7 nM in test [2] and greater than 10000 nM in test [3].

B12: SEQ ID NO. 14: NH2-Tyr-Sar-(4-F)Phe-Leu-NMA-DArg-NH2 (peptide)
peptide: H-Y[Sar][Phe(4-F)]L[NMA][dR]-NH2
For B12, the “Activity (EC50, nM), cAMP assay” value came out at 1660 nM in test [1], 11.6 nM in test [2] and 4000 nM in test [3].

B13: SEQ ID NO. 5: NH2-Tyr-Sar-(4-NO2)Phe-Leu-DArg-Arg-NH2 (peptide)
peptide: H-Y[Sar][Phe(4-NO2)]L[dR]R-NH2
Turning to B13, the “cAMP assay … at 1 µM peptide” value in test [4] was 0.05; in test [5], 33.4; in test [6], -0.05. Besides, the “cAMP assay … at 10 µM peptide” value worked out at 2.02 in test [4], 43.1 in test [5] and 4.32 in test [6].

B14: SEQ ID NO. 6: NH2-Tyr-Sar-Phe-Leu-DArg-Arg-NH2 (peptide)
peptide: H-Y[Sar]FL[dR]R-NH2
On to B14, for which the “cAMP assay … at 1 µM peptide” value in test [4] is -0.03; in test [5] it was 14.2; in test [6], 1.04. Moreover, the “cAMP assay … at 10 µM peptide” value in test [4] was determined as 2.25; in test [5], 35.1; in test [6] it was 7.84.

B15: SEQ ID NO. 2: NH2-Tyr-Sar-Phe-Leu-Arg-Arg-NH2 (peptide)
peptide: H-Y[Sar]FLRR-NH2
Consider B15, for which the figures for the “cAMP assay … at 1 µM peptide” value in test [4], in test [5] and in test [6] were -0.47, 21.6 and -2.5, respectively. Moreover, the figures for the “cAMP assay … at 10 µM peptide” value in test [4], in test [5] and in test [6] were 22, 32.4 and 12.4, respectively. Besides, the “Activity (EC50, nM), cAMP assay” value in test [1] is greater than 10000 nM; in test [2], 8.6 nM; in test [3], 6700 nM.

B16: SEQ ID NO. 12: NH2-Tyr-Sar-(4-F)Phe-Leu-Arg-DArg-NH2 (peptide)
peptide: H-Y[Sar][Phe(4-F)]LR[dR]-NH2
For the molecule B16, the results for the “Activity (EC50, nM), cAMP assay” value in test [1], in test [2] and in test [3] were greater than 10000 nM, 6.7 nM and 3450 nM, respectively.

B17: SEQ ID NO. 16: NH2-Tyr-Sar-(4-Cl)Phe-Leu-Lys-DArg-NH2 (peptide)
peptide: H-Y[Sar][Phe(4-Cl)]LK[dR]-NH2
SMILES: CC(C)C[C@H](NC(=O)[C@H](Cc1ccc(Cl)cc1)NC(=O)CN(C)C(=O)[C@@H](N)Cc1ccc(O)cc1)C(=O)N[C@@H](CCCCN)C(=O)N[C@H](CCCNC(=N)N)C(N)=O
In the case of B17, the results for the “Activity (EC50, nM), cAMP assay” value in test [2] and in test [3] were 26 nM and greater than 10000 nM, respectively.

B18: SEQ ID NO. 18: NH2-Tyr-Sar-(4-NO2)Phe-Leu-Arg-NMA-NH2 (peptide)
peptide: H-Y[Sar][Phe(4-NO2)]LRX-NH2
modifications: not fully specified (residue 6); printed as NH2-Tyr-Sar-(4-NO2)Phe-Leu-Arg-NMA-NH2
Regarding B18, the “Activity (EC50, nM), cAMP assay” value in test [1] and in test [3] was greater than 10000 nM throughout.

B19: SEQ ID NO. 7: NH2-Tyr-Sar-Phe-Leu-DArg-DArg-NH2 (peptide)
peptide: H-Y[Sar]FL[dR][dR]-NH2
Consider B19, for which the “cAMP assay … at 1 µM peptide” value in test [4] was -0.68; in test [5], 18.3; in test [6] it was 0.13. The entries for the “cAMP assay … at 10 µM peptide” value in test [4], in test [5] and in test [6] were 2.53, 36 and 4.19, respectively.

B20: CR845 (SEQ ID NO. 35: DPhe-DPhe-DLeu-DLys-Cap-CO2H) (peptide)
peptide: [dF][dF][dL][dK][Api]-OH
modifications: N-terminus assumed
SMILES: CC(C)C[C@@H](NC(=O)[C@@H](Cc1ccccc1)NC(=O)[C@H](N)Cc1ccccc1)C(=O)N[C@H](CCCCN)C(=O)NC1(C(=O)O)CCNCC1
Turning to B20, the “cAMP assay … at 1 µM peptide” value in test [4] was -5.72; in test [5], 25.9; in test [6], 0.37. The “cAMP assay … at 10 µM peptide” value in test [4] worked out at 3.27; in test [5] it was 34.6; in test [6], 8.07. For the same molecule, the “Activity (EC50, nM), cAMP assay” value is greater than 10000 nM in test [1], 0.37 nM in test [2] and greater than 10000 nM in test [3].

B21: SEQ ID NO. 20: NH2-Tyr-Sar-(4-Cl)Phe-Leu-Arg-DArg-Ile-Arg-NH2 (peptide)
peptide: H-Y[Sar][Phe(4-Cl)]LR[dR]IR-NH2
With B21, the “Activity (EC50, nM), cAMP assay” value is 3580 nM in test [1] and greater than 10000 nM in test [3].

B22: SEQ ID NO. 10: NH2-Tyr-Sar-(4-NO2)Phe-Leu-DLys-DArg-NH2 (peptide)
peptide: H-Y[Sar][Phe(4-NO2)]L[dK][dR]-NH2
As for B22, the “cAMP assay … at 1 µM peptide” value was -3 in test [4], 8.47 in test [5] and -1.27 in test [6]. The “cAMP assay … at 10 µM peptide” value was -0.95 in test [4], 25.1 in test [5] and 0.02 in test [6].
